According to patent US20160347840A1 (Janssen / Centocor, published 2016):

T1: chimpanzee PSMA extracellular domain (PSMW8), 6His and Avi tag (chimpanzee, UniProt Q04609 44-750 (human entry), biotinylated in bead-based selections and the ELISA screen)
T1 construct: Cloned along with a 6His and Avi tag; Buffer with ZnCl2 to stabilise PSMA dimerisation; also called pan 229
T1 chain: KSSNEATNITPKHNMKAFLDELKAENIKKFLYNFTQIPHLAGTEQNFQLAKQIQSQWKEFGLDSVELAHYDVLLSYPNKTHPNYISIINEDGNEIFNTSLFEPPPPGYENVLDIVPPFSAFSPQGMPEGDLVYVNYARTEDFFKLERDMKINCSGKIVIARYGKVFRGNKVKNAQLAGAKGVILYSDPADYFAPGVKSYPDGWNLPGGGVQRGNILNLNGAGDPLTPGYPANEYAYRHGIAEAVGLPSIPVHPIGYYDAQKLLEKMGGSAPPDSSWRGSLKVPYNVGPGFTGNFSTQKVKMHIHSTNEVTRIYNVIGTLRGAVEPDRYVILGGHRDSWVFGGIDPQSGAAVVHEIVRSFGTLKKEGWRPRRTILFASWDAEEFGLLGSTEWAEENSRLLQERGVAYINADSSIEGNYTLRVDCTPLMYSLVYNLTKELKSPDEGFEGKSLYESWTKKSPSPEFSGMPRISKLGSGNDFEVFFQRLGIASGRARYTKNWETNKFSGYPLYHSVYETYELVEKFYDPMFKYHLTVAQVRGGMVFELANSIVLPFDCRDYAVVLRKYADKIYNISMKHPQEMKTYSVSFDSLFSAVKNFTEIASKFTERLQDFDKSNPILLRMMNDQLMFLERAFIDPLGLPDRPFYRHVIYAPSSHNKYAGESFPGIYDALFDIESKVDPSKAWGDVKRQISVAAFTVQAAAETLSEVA

T2: cynomolgus PSMA extracellular domain (PSMW1), 6His and Avi tag (cynomolgus, UniProt Q04609 44-750 (human entry), biotinylated in bead-based selections and the ELISA screen)
T2 construct: Cloned along with a 6His and Avi tag; also called cynomolgus monkey PSMA; pan 230
T2 chain: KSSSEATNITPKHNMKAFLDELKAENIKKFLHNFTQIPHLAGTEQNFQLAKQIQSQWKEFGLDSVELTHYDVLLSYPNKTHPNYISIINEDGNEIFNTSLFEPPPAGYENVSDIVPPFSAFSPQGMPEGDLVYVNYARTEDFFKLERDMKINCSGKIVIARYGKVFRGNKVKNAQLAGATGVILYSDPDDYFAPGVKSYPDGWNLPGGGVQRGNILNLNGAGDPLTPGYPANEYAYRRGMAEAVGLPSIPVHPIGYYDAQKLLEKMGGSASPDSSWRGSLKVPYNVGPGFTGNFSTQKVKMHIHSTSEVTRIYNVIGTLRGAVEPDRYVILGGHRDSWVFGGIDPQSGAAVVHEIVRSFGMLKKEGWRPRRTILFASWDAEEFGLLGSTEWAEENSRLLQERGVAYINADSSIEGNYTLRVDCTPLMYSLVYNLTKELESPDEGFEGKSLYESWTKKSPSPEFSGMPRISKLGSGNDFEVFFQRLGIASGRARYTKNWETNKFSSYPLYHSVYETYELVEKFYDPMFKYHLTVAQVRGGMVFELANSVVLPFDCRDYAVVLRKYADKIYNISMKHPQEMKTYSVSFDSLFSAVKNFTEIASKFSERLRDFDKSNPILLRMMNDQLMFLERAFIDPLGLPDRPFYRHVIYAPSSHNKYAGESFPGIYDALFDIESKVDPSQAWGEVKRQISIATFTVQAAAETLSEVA

B1: CD3B154 (antibody, human IgG1, V domains shown)
VH: EVQLLESGGGLVQPGGSLRLSCAASGFTFNTYAMNWVRQAPGKGLEWVARIRSKYNNYATYYADSVKGRFTISRDNSKNTLYLQMNSLRAEDTAVYYCVKHGNFGNSYVSWFAYWGQGTLVTVSS
VL: QTVVTQEPSLTVSPGGTVTLTCRSSTGAVTTSNYANWVQQKPGQAPRGLIGGTNKRAPGTPARFSGSLLGGKAALTLSGVQPEDEAEYYCALWYSNLWVFGGGTKLTVL
notes: Humanized SP34 variant; human IgG1 constant region with L234A, L235A, F405L; human lambda constant region; also called CDB154
B2: CD3B144 (antibody, human IgG1, V domains shown)
VH: EVQLVESGGGLVQPGGSLRLSCAASGFTFNTYAMNWVRQAPGKGLEWVARIRSKYNNYATYYAASVKGRFTISRDDSKNSLYLQMNSLKTEDTAVYYCARHGNFGNSYVSWFAYWGQGTLVTVSS
VL: QSVLTQPPSVSAAPGQKVTISCRSSTGAVTTSNYANWVQQLPGTAPKGLIGGTNKRAPGIPDRFSGSKSGTSATLGITGLQTGDEADYYCALWYSNLWVFGGGTKLTVL
notes: Humanized SP34 variant; human IgG1 constant region with L234A, L235A, F405L; human lambda constant region; also called CDB144
B3: CD3B152 (antibody, human IgG1, V domains shown)
VH: EVQLLESGGGLVQPGGSLRLSCAASGFTFNTYAMNWVRQAPGKGLEWVARIRSKYNNYATYYADSVKGRFTISRDNSKNTLYLQMNSLRAEDTAVYYCVKHGNFGNSYVSWFAYWGQGTLVTVSS
VL: QSVLTQPPSVSAAPGQKVTISCRSSTGAVTTSNYANWVQQLPGTAPKGLIGGTNKRAPGIPDRFSGSKSGTSATLGITGLQTGDEADYYCALWYSNLWVFGGGTKLTVL
notes: Humanized SP34 variant; human IgG1 constant region with L234A, L235A, F405L; human lambda constant region; also called CDB152
B4: P229CR5P819_H11 (designed binder)
chain: LPAPKNLVVSRVTEDSARLSWDIDEQRDWFDSFLIQYQESEKVGEAIVLTVPGSERSYDLTGLKPGTEYTVSIYGVYHVYRSSNPLSAIFTT
notes: In the cytotoxicity assays it was conjugated to vc-MMAF (cysteine-maleimide chemistry or sortase reaction); also called P229CR9P819-H11; not shown: C-terminal poly-histidine tag
B5: P233FR9P1001_B5-5 (designed binder)
chain: LPAPKNLVVSRVTEDSARLSWTAPDAAFDSFTIGYWEWDDDGEAIVLTVPGSERSYDLTGLKPGTEYPVYIAGVKGGQWSFPLSAIFTT
notes: not shown: C-terminal poly-histidine tag
B6: P233FR9P1001_D9 (designed binder)
chain: LPAPKNLVVSRVTEDSARLSWTAPDAAFDSFPIGYWEWDDDGEAIVLTVPGSERSYDLTGLKPGTEYWVYIAGVKGGQWSFPLSAIFTT
notes: as for B5
B7: P233FR9P1001_H3-1 (designed binder)
chain: LPAPKNLVVSRVTEDSARLSWTAPDAAFDSFPIGYWEWDDDGEAIVLTVPGSERSYDLTGLKPGTEYHVYIAGVKGGQWSFPLSAIFTT
notes: as for B5
B8: P234CR9_A7 (designed binder)
chain: LPAPKNLVVSRVTEDSARLSWGEQFTIFDSFLIQYQESEKVGEAIVLTVPGSERSYDLTGLKPGTEYTVSIYGASGYEWFHAFGSSNPLSAIFTT
notes: also called P234CR9_A07; not shown: C-terminal poly-histidine tag
B9: P258AR6P1070_A05 (designed binder)
chain: LPAPKNLVVSRVTEDSARLSWTIDEQRDWFDSFLIQYQESEKVGEAIVLTVPGSERSYDLTGLKPGTEYTVSIYGVYHVYRSNPLSAIFTT
notes: as for B5
B10: P258AR6P1071_G03 (designed binder)
chain: LPAPKNLVVSRVTEDSARLSWDIDEQRDWFDSFLIQYQESEKVGEAIVLTVPGSERSYDLTGLKPGTEYTVSIYGVYHVYRSNPLSAIFTT
notes: as for B5
B11: P258AR6P1071_D02 (designed binder)
chain: LPAPKNLVVSRVTEDSARLSWAIDEQRDWFESFLIQYQESEKVGEAIVLTVPGSERSYDLTGLKPGTEYTVSIYGVYHVYRSNPLSAIFTT
notes: as for B5
B12: P258AR6P1070_F09 (designed binder)
chain: LPAPKNLVVSRVTEDSARLSWTIDEQRDWFESFLIQYQESEKVGEAIVLTVPGSERSYDLTGLKPGTEYTVSIYGVYHVYRSNPLSAIFTT
notes: as for B5
B13: P258AR6P1071_F04 (designed binder)
chain: LPAPKNLVVSRVTEDSARLSWVIDEQRDWFDSFLIQYQESEKVGEAIVLTVPGSERSYDLTGLKPGTEYTVSIYGVYHVYRSNPLSAIFTT
notes: as for B5
B14: P234CR9_H01 (designed binder)
chain: LPAPKNLVVSRVTEDSARLSWEWWVIPGDFDSFLIQYQESEKVGEAIVLTVPGSERSYDLTGLKPGTEYTVSIYGVVNSGQWNDTSNPLSAIFTT
notes: as for B5

Tests used:
[1] = biological target: T3, cynomolgus CD3E on primary cynomolgus CD4+ T cells (cynomolgus, UniProt Q95LI5 22-198); test: flow cytometry on primary cynomolgus CD4+ T cells
T3 construct: whole, on cells; On the cells CD3E stands in the CD3/T cell receptor complex
T3 sequence (Q95LI5 22-198): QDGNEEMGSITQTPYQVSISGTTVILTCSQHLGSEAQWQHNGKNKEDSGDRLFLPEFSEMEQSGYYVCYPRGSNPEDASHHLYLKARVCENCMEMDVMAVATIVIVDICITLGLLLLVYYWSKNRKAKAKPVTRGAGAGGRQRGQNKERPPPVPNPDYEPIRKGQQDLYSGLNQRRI
Experimental: (§1) The resulting panel of anti-CD3 antibodies was tested for binding against cell-surface CD3E on primary human T cells. To do this, binding of antibodies from expression supernatants was visualized using a polyclonal anti-human secondary antibody and analyzed by flow cytometry. Briefly, binding of anti-CD3 antibodies to cell-surface CD3E was assessed by flow cytometry using primary Human T lymphocytes purified by negative selection (Biological Specialty, Colmar, USA). Expression supernatants or purified antibodies were normalized to 10 μg/ml in media or FACS buffer (BD BioSciences), respectively. 2×10⁵ cells were aliquoted into wells of a 96 well round-bottomed plate (CoStar) for labeling. Antibodies in expression supernatant were added to cells and incubated for 45 min at 4° C. Following centrifugation at 1300 rpm for 3 min and removal of supernatant, 50 μL of anti-human IgG (H+L) Alexa Fluor 647 secondary antibody (Life technologies Inc.) was incubated with the cells at a final concentration of 10 μg/mL for 30 min at 4° C. away from direct light. Following washing and resuspension in 30 μL FACs buffer (BD BioSciences). Sample collection was performed on an Intellicyt HTFC system using ForeCyt software. Viable single cells were gated prior to analysis of binding using the green or red fixable live/dead dyes (Life Technologies Inc.) and forward/side scatter area and height parameters, respectively. Graphs were generated in GraphPad Prism version 5 using mean fluorescence intensity values.
Binding analysis of the anti-CD3 hits to primary cynomolgusCD4+ T cells was then tested in order to assess the retention of cross-reactivity. Purified CD4+ T cells from the peripheral blood of cynomolgus monkeys (Zen Bio, Triangle Research Park, USA were used). Assay protocols were similar to those described above. […] This included the strong binders CD3B150, CD3B151 and CD3B154, in which binding was reduced, and several weak binders where binding could no longer be detected over background.

[2] = biological target: T4, cell-surface CD3E on primary human T cells (human, UniProt P07766 23-207); test: flow cytometry on primary human T cells, anti-human IgG Alexa Fluor 647 secondary
T4 construct: whole, on cells; On the cells CD3E stands in the CD3/T cell receptor complex; also called human CD3
T4 sequence (P07766 23-207): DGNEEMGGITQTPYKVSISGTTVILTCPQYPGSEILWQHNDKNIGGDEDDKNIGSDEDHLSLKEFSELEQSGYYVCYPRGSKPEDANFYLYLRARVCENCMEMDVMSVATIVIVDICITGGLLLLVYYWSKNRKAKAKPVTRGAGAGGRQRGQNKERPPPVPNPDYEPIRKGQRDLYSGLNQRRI
Experimental: as §1
Two in-house phage-derived antibodies with the same Fc region as the therapeutic antibodies were used as controls: G11 (HC SEQ ID NO:176, LC SEQ ID NO:177), a non-cyno cross-reactive, agonistic antibody was used as a positive control and CD3B94 (HC-SEQ ID NO:178, LC—SEQ ID NO:179) a non-binder/non-agonistic antibody was used to assess non-specific binding. The commercial SP34 antibody was not used as a comparator in this assay since it is a mouse antibody and the use of a different secondary detection reagent would have prohibited direct comparison with the variants tested.

[3] = biological target: T1, chimpanzee PSMA extracellular domain …; test: hit from CIS-display panning and ELISA screen on PSMA of this species (column Antigen species)
[4] = biological target: T5, human PSMA on tumor cells (LNCaP, MDA-PCA-2B, VCAP, 22Rv1) (human, UniProt Q04609 1-750); test: cell-based or functional assay
T5 sequence (Q04609 whole entry): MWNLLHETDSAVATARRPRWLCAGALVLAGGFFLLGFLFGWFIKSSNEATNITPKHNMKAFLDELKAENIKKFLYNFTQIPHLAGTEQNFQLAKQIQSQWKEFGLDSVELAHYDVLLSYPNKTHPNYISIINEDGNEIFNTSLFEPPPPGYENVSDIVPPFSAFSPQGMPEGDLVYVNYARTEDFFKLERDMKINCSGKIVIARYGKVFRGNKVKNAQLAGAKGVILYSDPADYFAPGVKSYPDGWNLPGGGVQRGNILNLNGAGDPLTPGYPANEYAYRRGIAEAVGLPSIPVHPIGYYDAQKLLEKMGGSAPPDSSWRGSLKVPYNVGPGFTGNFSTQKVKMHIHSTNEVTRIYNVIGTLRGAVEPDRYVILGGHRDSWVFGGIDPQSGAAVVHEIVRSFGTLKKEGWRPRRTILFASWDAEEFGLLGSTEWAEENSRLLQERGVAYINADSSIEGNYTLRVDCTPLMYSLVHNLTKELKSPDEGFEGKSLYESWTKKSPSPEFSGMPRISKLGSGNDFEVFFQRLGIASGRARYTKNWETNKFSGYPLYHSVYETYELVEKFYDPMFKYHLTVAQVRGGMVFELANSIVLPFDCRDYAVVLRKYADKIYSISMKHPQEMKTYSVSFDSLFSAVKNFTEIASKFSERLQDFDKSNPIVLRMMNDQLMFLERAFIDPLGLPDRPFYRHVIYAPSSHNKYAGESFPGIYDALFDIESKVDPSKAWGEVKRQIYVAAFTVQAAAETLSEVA

[5] = biological target: T5, human PSMA on tumor cells (LNCaP, …); test: cell-based or functional assay; remark: listed apart in the source
[6] = biological target: T2, cynomolgus PSMA extracellular domain …; test: hit from CIS-display panning and ELISA screen on PSMA of this species (column Antigen species)

Binder	LNCaP IC50 (nM), cytotoxicity of the FN3 domain-vcMMAF conjugate (CellTiter-Glo) [4] [nM]	binding result [6]	other results
B1			binding result [1]: binds; binding result [2]: binds
B2			binding result [2]: no binding
B3			binding result [2]: no binding
B4	20.7		binding result [3]: binds; LNCaP cells IC50 (nM), cytotoxicity of FN3 domain-drug conjugate [5]: 9.3 nM; MDA-PCA-2B cells IC50 (nM), cytotoxicity of FN3 domain-drug conjugate [5]: 107 nM; VCAP cells IC50 (nM), cytotoxicity of FN3 domain-drug conjugate [5]: 231 nM
B5	0.5		binding result [3]: binds
B6	1.4		binding result [3]: binds
B7	0.4		binding result [3]: binds; LNCaP cells IC50 (nM), cytotoxicity of FN3 domain-drug conjugate [5]: 0.4 nM; MDA-PCA-2B cells IC50 (nM), cytotoxicity of FN3 domain-drug conjugate [5]: 4.6 nM; VCAP cells IC50 (nM), cytotoxicity of FN3 domain-drug conjugate [5]: 15.2 nM
B8	8.8	binds	
B9	4.6	binds	
B10	5.8	binds	
B11	0.8	binds	
B12	0.9	binds	
B13	5.4	binds	
B14	22.6	binds	LNCaP cells IC50 (nM), cytotoxicity of FN3 domain-drug conjugate [5]: 22.6 nM; MDA-PCA-2B cells IC50 (nM), cytotoxicity of FN3 domain-drug conjugate [5]: 151 nM; VCAP cells IC50 (nM), cytotoxicity of FN3 domain-drug conjugate [5]: 401 nM
